Consider three substances from publication PMC6146036 (Frontiers in Molecular Neuroscience, 2018).

Data set [1] has as its target T1, human recombinant choline acetyltransferase (rChAT) (Homo sapiens, UniProt P28329).
T1 construct: made in house; host or cells: E. coli BL21 Rosetta2
T1 sequence (P28329 1-630 isoform P28329-3): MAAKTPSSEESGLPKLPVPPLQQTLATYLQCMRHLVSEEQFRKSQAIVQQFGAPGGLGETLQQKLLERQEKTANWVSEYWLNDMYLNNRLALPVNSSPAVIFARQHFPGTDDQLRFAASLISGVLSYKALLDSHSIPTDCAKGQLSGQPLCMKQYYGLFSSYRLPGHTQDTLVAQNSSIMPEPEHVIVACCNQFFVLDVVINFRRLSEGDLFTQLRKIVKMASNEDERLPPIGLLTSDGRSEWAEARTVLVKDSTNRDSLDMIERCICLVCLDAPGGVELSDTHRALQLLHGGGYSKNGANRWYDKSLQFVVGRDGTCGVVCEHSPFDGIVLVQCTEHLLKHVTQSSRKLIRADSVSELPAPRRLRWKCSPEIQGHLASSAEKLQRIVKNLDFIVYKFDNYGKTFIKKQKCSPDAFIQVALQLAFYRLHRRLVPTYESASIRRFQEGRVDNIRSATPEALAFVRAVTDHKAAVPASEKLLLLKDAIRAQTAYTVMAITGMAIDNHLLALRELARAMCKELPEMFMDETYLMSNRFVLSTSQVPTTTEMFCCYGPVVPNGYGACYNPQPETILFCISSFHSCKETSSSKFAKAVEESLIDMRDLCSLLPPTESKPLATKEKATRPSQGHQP
The data set is described as follows: Fluorometric in vitro ChAT activity assay (human rChAT, CPM read-out). The note with it: for direction of effect on ChAT activity at high concentrations: 0 to 3,800 ng/mL (0–833.3 nM), 1:2 dilutions, two independent experiments, Figure 2C; for difference in slopes of ChAT rate vs gelatin control: 6.4 ng/mL Aβ40 or 0.16 ng/mL Aβ42 (F = 21, p < 0.0001), linear regression; for effect on increases in ChAT activity at the higher Aβ concentration points: 160 and 800 ng/mL Aβ40, 100 ng/mL Aβ42, activity still higher than baseline; for concentration range giving the highest level of ChAT activation in the mixture: Aβ40:Aβ42 10:1 mixture, Figure 5C, with or without gelatin; for effect on ChAT activity at physiological concentrations: CSF concentrations ∼4–6.4 ng/mL Aβ40, ∼0.4–0.8 ng/mL Aβ42, Figures 2A,B. Type of data set: biochemical. The method, then:
Recombinant ChAT was purified as described previously ([Kumar et al., 2016a], [2017]). Briefly, DYT media was inoculated with an O/N culture of E. coli BL21 Rosetta2 transformed with pProExHTa-ChAT (a gift from Dr. Brian Shilton, Department of Biochemistry, University of Western Ontario, London, ON, Canada). The bacteria were grown in shaking incubator at 37°C with 200 rpm until the optical density at 600 nm reached 0.5. After which, 0.5 mM IPTG was added and His6-ChAT was expressed for approximately 16 h at 18°C. Next, the cells were harvested and His6-ChAT was purified with “Ni-NTA fast start Kit” (Qiagen) following the manufacturer’s instructions. The elution buffer was exchanged to storage buffer [10 mM Tris pH 7.4, 500 mM NaCl, 10% (v/v) glycerol] using 30 kDa molecular weight cutoff Amicon Ultra concentrators (Merck Millipore). The purity and molecular weight of the protein were determined using SDS-PAGE electrophoresis. The total protein concentration was determined using DC Protein Assay (Bio-Rad). The purified protein was aliquoted and stored at −80°C.
ChAT activity was measured with our newly developed robust in-house fluorometric assay, using human rChAT protein. […] The reagents, choline chloride (C7017), acetyl coenzyme-A (ACoA, A2181), 7-diethylamino-3-(4-maleimidophenyl)-4-methylcoumarin (CPM) (C1484), thioflavin-T (ThT; T3516), and gelatin (G7041) were purchased from Sigma-Aldrich (St. Louis, MO, United States).
Then, 50 μL of a cocktail-A [dilution buffer containing 10 μM ACoA (final concentration) and 15 μM CPM (final concentration)] was added to each well. Immediately after adding the cocktail-A, the changes in fluorescence were monitored kinetically at 479 nm emission wavelength after exciting at 390 nm wavelength, at 1- to 2-min intervals for 15–20 min using a microplate spectrophotometer reader (Infinite M1000, Tecan).
Each Aβ peptide dilution was run in triplicates. On each 96-wells plate, several enzyme wells without Aβ were also included as positive controls and for estimating the activation level by Aβ peptides. Negative controls were wells without enzyme, but with all the other above-mentioned reagents. The kinetic rate of enzyme activity (as ΔRFU/min slope data) was calculated and processed using the GraphPad Prism 7 analysis software. The actual rate values as well as statistical analysis values (P-values) of ChAT activity at different Aβ concentrations or alone were calculated after fitting the curve with the linear regression function in the GraphPad Prism 7. […]

A short description of data set [2]: Thioflavin-T (ThT) fluorescence Aβ fibrillization assay. As to conditions: 800 ng/mL Aβ40, 100 ng/mL Aβ42; ThT 1 μM, pH 7.4, 37°C overnight, ex 450/em 485 nm, ChAT, choline and ACoA as in activity assay; method: quadruplicate, legend: mean ± SEM of three readings. Format: physicochemical. The method, then: The ThT fluorescence assay was used to ensure that the Aβ peptides remained soluble during the aforementioned experimental setups. The ThT fluorescence assay was performed in 96-well black plates with a transparent bottom, as described before ([Kumar et al., 2016b]). […] The concentration of ChAT, choline, and ACoA were as used in the aforementioned experiments. To each well, 100 μL/well of a 1 μM ThT solution was added, the plate was then carefully sealed and the changes in fluorescence were monitored from the bottom of the wells, at an emission and excitation wavelengths of 485 nm and 450 nm, respectively, at 15-min intervals at 37°C for an overnight duration, using a microplate spectrophotometer reader (Infinite M1000, Tecan). Each Aβ peptide concentration was run in quadruplicate. Several wells with Aβ alone were also included as control, and wells without ThT were used as negative controls.

Data set [3] concerns cultured cholinergic neurons. As to conditions: high nanomolar concentration; ref Pedersen et al., 1996; Hoshi et al., 1997; Kar et al., 1998; Nunes-Tavares et al., 2012; cited from earlier work. From the text: The functional relationship between Aβ and the cholinergic system, especially ChAT, is quite complex and still need further exploration to gain a better understanding of Aβ native function and role in AD pathology.

Entries after “also recorded” stand apart in the source; their conditions may differ.

With “Aβ42: amyloid-β peptide, recombinant, purchased from rPeptide (Cat no. A-1166-1)”, in data set [1], the “direction of effect on ChAT activity at high concentrations” value is “activation of ChAT”, the “effect on increases in ChAT activity at the higher Aβ concentration points” value was “started to decline” and the “concentration range giving the highest level of ChAT activation in the mixture” value is 0.12 to 0.64 ng/mL. The “rate of ChAT activity in the presence of Aβ42” value in data set [1] (0.16 ng/mL Aβ42, rChAT 0.146 μg/mL, 150 μM choline chloride, 10 μM ACoA, 15 μM CPM, 30 min room temperature, pH 7.4, no gelatin, mean ± SD of ≥2 readings, control (ChAT alone) 53.8 ± 1.11, F = 98.5, p < 0.0001) is recorded as 71.6 ± 1.41 ΔRFU/min. In data set [1] (1 mg/mL gelatin), the “difference in slopes of ChAT rate vs gelatin control” value is recorded as “statistically highly significant”. Also, in data set [1] (no gelatin), the “effect on ChAT activity at physiological concentrations” value is “able to increase the activity of ChAT at physiological concentrations”. In addition, in data set [2], the “difference in ThT fluorescence intensity vs control wells (no Aβ)” value is “no significant differences in the ThT fluorescence intensity”. Also, the “reduction in ACh synthesis” value in data set [3] is 40–50%.
In the case of “Aβ40: amyloid-β peptide, recombinant, purchased from rPeptide (Cat no. A-1153-1)”, in data set [1], the “direction of effect on ChAT activity at high concentrations” value is on record as “inhibition of ChAT rather than activation”, the “effect on increases in ChAT activity at the higher Aβ concentration points” value is reported as “started to decline” and the “concentration range giving the highest level of ChAT activation in the mixture” value was 1.3 to 6.4 ng/mL. For the same substance, the “rate of ChAT activity in the presence of Aβ40” value in data set [1] (6.4 ng/mL Aβ40, rChAT 0.146 μg/mL, 150 μM choline chloride, 10 μM ACoA, 15 μM CPM, 30 min room temperature, pH 7.4, no gelatin, mean ± SD of ≥2 readings, control (ChAT alone) 26.06 ± 1.07, F = 33.21, p < 0.0001) is 36.5 ± 1.48 ΔRFU/min. For the same substance, the “difference in elevations or intercepts of ChAT rate vs gelatin control” value in data set [1] (1 mg/mL gelatin, 6.4 ng/mL Aβ40, F = 9.2, p < 0.004) was “significant”. Further, in data set [1] (1 mg/mL gelatin), the “difference in slopes of ChAT rate vs gelatin control” value was “not statistically significant”. The “effect on ChAT activity at physiological concentrations” value in data set [1] (no gelatin) is “able to increase the activity of ChAT at physiological concentrations”. The “concentration at which the increase in ChAT activity reaches a plateau” value in data set [1] (no gelatin, dilution series 0–800 ng/mL Aβ40, 0–100 ng/mL Aβ42) is reported as around 32 ng/mL. The “overall effect on ChAT across experiments” value in data set [1] (some experiments vs others) was “inhibited ChAT in some experiments, while in others it enhanced its activity”. Moreover, in data set [2], the “difference in ThT fluorescence intensity vs control wells (no Aβ)” value is “no significant differences in the ThT fluorescence intensity”.
Regarding gelatin [reference compound], the “effect of gelatin on ChAT activity” value in data set [1] (gelatin 0 to 4 mg/mL, mean ± SD of four readings) was “slight increase in the rate of ChAT activity within the 0.5–2 mg/mL gelatin concentration range; also recorded: no significant effect on ChAT activity”. For the same substance, the “change in ChAT activity by gelatin” value in data set [1] (gelatin 0.5 to 4 mg/mL, Figure 4A, mean ± SD of four readings) is −5% to +9.
